US20230203172A1 (SHANGHAI MABGEEK BIOTECH, published 2023)

How the values were obtained:
hIL-4R alpha-ECD-Flag = biological target: T1, hIL-4R alpha-ECD-Flag (human, UniProt P24394 26-232); assay: SPR, Biacore T200, antibody captured on Protein-A chip, hIL-4R alpha-ECD-Flag as analyte
T1 construct: range 26-232; Analyte of the Biacore experiment
Procedure: The affinity of six purified humanized antibodies was detected by Biacore T200 (GE healthcare), with the reference antibody Dupilumab as a control. The specific experimental method was as follows: a Protein-A CMS sensor chip (GE healthcare) was used, with FC1 (Flow cell 1) as a reference channel, and FC2 (Flow cell 2) as a sample channel. Humanized antibodies or control antibody were captured in the FC2 channel, and then hIL-4R alpha-ECD-Flag at different concentrations was injected. Cycling conditions were as follows: an analyte was injected into all channels of FCs at 50 μl/min for 4 min, with a dissociation time of 20 min, and 6M guanidine hydrochloride (Sinopharm Chemical Reagent Co., Ltd.) was injected at a rate of 10 μl/min for 30 s for surface regeneration. Then, signal differences and affinity for interaction between captured antibodies and non-captured antibodies were calculated by Biacore T200 Evaluation Software Ver 1.0.

[1] = biological target: human IL-4R alpha on cells (TF-1 cells; human peripheral blood mononuclear cells) (human, UniProt P24394 26-825); assay: cell-based or functional assay
hIL-4R alpha-ECD-Fc = biological target: T2, hIL-4R alpha-ECD-Fc (human, UniProt P24394 26-232); assay: ELISA, plate coated with 1 ug/ml hIL-4R alpha-ECD-Fc
T2 construct: range 26-232; hFc at the C-terminus of the ECD; also called hIL4R alpha-ECD-hFc; hIL-4R alpha-Fc antigen
Procedure: The titer was tested by ELISA: an ELISA plate was coated with the hIL-4R alpha ECD-Fc antigen at a concentration of 1 μg/ml, 100 μl per well, and coated overnight at 4° C. The plates were washed twice with PBST (PBS containing 0.5% Tween-20) and then pat-dried. Each well was blocked with 200 μl of coating solution containing 1% BSA, blocked at room temperature for 4 h, pat-dried, and stored in a refrigerator at −20° C. for later use. During testing, 100 μl of mouse serum at different concentrations was added to each well of the ELISA plate, with two replicate wells, for incubation at room temperature for 1.5 h. The wells were washed with PBST for 3 times and then pat-dried. Then 100 μl of rabbit anti-mouse IgG labeled with HRP diluted with PBST by 1:10000 (purchased from Sigma) was added and the plates were incubated at room temperature for 1 h. The wells were washed with PBST for 3 times and then pat-dried. Then 100 μl of chromogenic solution was added to each well (an ELISA chromogenic solution A was mixed with a chromogenic solution B at a volume ratio of 1:1 before use) for a chromogenic reaction, and then 100 μl of 2M H2SO4 stopping solution was added to each well to terminate the reaction. The OD value of each well was immediately measured at 450 nm with a microplate reader (Molecular Device).
Optimized murine anti-hIL-4R alpha monoclonal antibodies were purified by a ProteinG affinity chromatography column and quantified by BCA. The EC50 of anti-hIL-4R alpha monoclonal antibodies binding to hIL-4R alpha was tested by ELISA. The testing method is as described in Example 3. An ELISA plate was coated with 1 μg/ml of hIL-4R alpha-ECD-Fc antigen, and then murine anti-hIL-4R alpha monoclonal antibodies at different concentrations were added for testing.

| Kd (hIL-4R alpha-ECD-Flag) | koff (hIL-4R alpha-ECD-Flag) | kon (hIL-4R alpha-ECD-Flag) | IC50 (ng/ml), inhibition of IL-4-induced TF-1 proliferation [1] | EC50 (hIL-4R alpha-ECD-Fc) | Binder |
| --- | --- | --- | --- | --- | --- |
| 0.403 nM | 0.00018 s⁻¹ | 446000 M⁻¹ s⁻¹ | – | – | Dupilumab (antibody, V domains shown) VH: EVQLVESGGGLEQPGGSLRLSCAGSGFTFRDYAMTWVRQAPGKGLEWVSSISGSGGNTYYADSVKGRFTISRDNSKNTLYLQMNSLRAEDTAVYYCAKDRLSITIRPRYYGLDVWGQGTTVTVSS VL: DIVMTQSPLSLPVTPGEPASISCRSSQSLLYSIGYNYLDWYLQKSGQSPQLLIYLGSNRASGVPDRFSGSGSGTDFTLKISRVEAEDVGFYYCMQALQTPYTFGQGTKLEIKR |
| – | – | – | 24.6 ng/mL | 0.0096 µg/mL | murine anti-hIL-4R alpha monoclonal antibody 81 (antibody, V domains shown, Mouse hybridoma antibody purified on ProteinG) VH: DVQLQQSGPELLKPGASVKIPCQASGYTFTDYNMDWVKQSHGKNLEWIGNINPNNGGTFYNQKFKGKATLTVDKSSSTAYMELRSLTSEDTAVYYCGRGGLRRRGFMDYWGQGTSVTVSS VL: QIVLSQSPAILSASPGEKVTMTCRASSSVIYIHWYQQKPGSSPKPWIYAASNLASGVPARFSGSGSGTSYSLTISRVEAEDAATYYCQQWSVNPPTFGGGTKLEIK |
| – | – | – | 34.2 ng/mL | 0.0131 µg/mL | murine anti-hIL-4R alpha monoclonal antibody 228 (antibody, V domains shown, Mouse hybridoma antibody purified on ProteinG) VH: DVQLQQSGPELLKPGASVKIPCQASGYTFTDYNMDWVKQSHGKNLEWIGNINPNNGGTFYNQKFKGKATLTVDKSSSTAYMELRSLTSEDTAVYYCGRGGLRRRGFMDYWGQGTSVTVSS VL: QIVLSQSPAILSASPGEKVTMTCRASSSVIYIHWYQQKPGSSPKPWIYAASNLASGVPARFSGSGSGTSYSLTISRVEAEDAATYYCQQWSVNPPTFGGGTKLEIK |
| – | – | – | 22.4 ng/mL | 0.0115 µg/mL | murine anti-hIL-4R alpha monoclonal antibody 236 (antibody, V domains shown, Mouse hybridoma antibody purified on ProteinG) VH: EVQLQQSGPELVKPGASVKIPCKASGYTFTDYNVDWVKQSHGQSLDWIGTINPNNGGILSNQKFKGKATLTVDTSSSTAYMELRSLTSEDTAVYYCGRGGLRRRGFMDYWGQGTSVTVSS VL: QIVLSQSPAILSASPGEKVTMTCRASSSVIYIHWYYQKAGSSPKPWIYAASNLPSGVPARFSGSGSGTSYSLTISRVEAEDAATYYCQQWSSNPPTFGGGTKLEIK |
| – | – | – | 57 ng/mL | 0.0099 µg/mL | murine anti-hIL-4R alpha monoclonal antibody 54 (antibody, V domains shown, Mouse hybridoma antibody purified on ProteinG) VH: EVQLQQSGPELVKPGASVKIPCKASGYTFTDYNMDWVKQSHGKSLEWIGDINPNNGNILFNQKFKGKATLTVDKSSSTAYVELRSLTSEDTAVYYCGRGGLRRRGFMDYWGQGTSVTVSS VL: QIVLSQSPAILSASPGEKVTMTCRASSSVSYMHWYQQKPGSSPKPWIYAASNLASGVPARFSGSGSGTSYSLTISRVEAEDAATYYCQQWSSNPPTFGGGTKLEIK |
| – | – | – | 19 ng/mL | 0.0089 µg/mL | murine anti-hIL-4R alpha monoclonal antibody 55 (antibody, V domains shown, Mouse hybridoma antibody purified on ProteinG) VH: DVQLQQSGPELLKPGASVKIPCQASGYTFTDYNMDWVKQSHGKNLEWIGNINPNNGGTFYNQKFKGKATLTVDKSSSTAYMELRSLTSEDTAVYYCGRGGLRRRGFMDYWGQGTSVTVSS VL: QIVLSQSPAILSASPGEKVTMTCRASSSVIYIHWYQQKPGSSPKPWIYAASNLASGVPVRFSGSGSGTSYSLTISRVEAEDAATYYCQQWSVNPPTFGGGTKLEIK |
| – | – | – | 67.2 ng/mL | 0.0091 µg/mL | murine anti-hIL-4R alpha monoclonal antibody 88 (antibody, V domains shown, Mouse hybridoma antibody purified on ProteinG) VH: DVQLQQSGPELLKPGASVKIPCQASGYTFTDYNMDWVKQSHGKNLEWIGTINPNNGGTFYNQNFKGKATLTVDKSSSTACMELRSLTSDDTAVYYCGRGGLRRRGFMDYWGQGTSVTVSS VL: QIVLSQSPAILSASPGEKVTMTCRASSSVIYIHWYQQKPGSSPKPWIYAASNLASGVPARFSGSGSGTSYSLTISRVEAEDAATYYCQQWSVNPPTFGGGTKLEIK |
| – | – | – | 31.3 ng/mL | 0.0122 µg/mL | murine anti-hIL-4R alpha monoclonal antibody 84 (antibody, V domains shown, Mouse hybridoma antibody purified on ProteinG) VH: DVQLQQSGRELLKRGASVKIPCQASGYTFTDYNMDWVKQSHGKNLEWIGNINPNNGGTFYNQKFKGKATLTVDKSSSTAYMELRSLTSEDTAVYYCGRGGLRRRGFMDYWGQGTSVTVSS VL: QIVLSQSPAILSASPGEKVTMTCRASSSVIYIHWYQQKPGSSPKPWIYAASNLASGVPARFSGSGSGTSYSLTISRVEAEDAATYYCQQWSVNPPTFGGGTKLEIK |
| – | – | – | 43.7 ng/mL | 0.0106 µg/mL | murine anti-hIL-4R alpha monoclonal antibody 64 (antibody, V domains shown, Mouse hybridoma antibody purified on ProteinG) VH: EVQLQQSGPELVKPGASVKISCKASGYTFTDYNMDWVKQSHGKSLEWIGTTNPNNGGTLYNQKFKGKATLTVDKSSSTAYMELRSLTSEDTAVYYCARGGLRRRGFVDYWGQGTSVTVSS VL: QIVLSQSPAILSASPGEKVTMTCRASSSVNYLHWYQQKPGSSPKPWIYATSNLASGVPARFSGSGSGTSYSLTISRVEAEDAATYYCQQWSSNPPTFGGGTKLEIK |
| – | – | – | 53.7 ng/mL | 0.012 µg/mL | murine anti-hIL-4R alpha monoclonal antibody 100 (antibody, V domains shown, Mouse hybridoma antibody purified on ProteinG) VH: DVQLQQSGPELLKPGASVKIPCQASGYTFTDYNMDWVKQSHGKNLEWIGNINPNNGGTFYNQKFKGKATLTVDKSSSTAYMELRSLTSEDTAVYYCGRGGLRRRGFLDYWGQGTSVTVSS VL: QIVLSQSPAILSASPGEKVTMTCRASSSVIYIHWYQQKPGSSPKPWIYAVSNLASGVPVRFSGSGSGTSYSLTISRVEAEDAATYYCQQWSVNPPTFGGGTKLEIK |
| 0.912 nM | 0.000658 s⁻¹ | 721000 M⁻¹ s⁻¹ | – | – | humanized anti-hIL-4R alpha monoclonal antibody 228-Hu (antibody, human IgG4 S228P, kappa, V domains shown, Humanized, human IgG4 constant region; expressed in HEK293, purified on ProteinA) VH: QVQLVQSGAEVKKPGASVKVSCKASGYTFTDYNMDWVRQAPGQNLEWIGNINPNNGGTFYNQKFKGRATLTVDKSASTAYMELSSLRSEDTAVYYCARGGLRRRGFMDYWGQGTLVTVSS VL: EIVLTQSPATLSLSPGERATLSCRASSSVIYIHWYQQKPGQSPRPWIYAASNLASGVPARFSGSGSGTDYTLTISRLEPEDFAVYYCQQWSVNPPTFGQGTKLEIKR |
| – | – | – | 65.3 ng/mL | 0.0076 µg/mL | murine anti-hIL-4R alpha monoclonal antibody 29 (antibody, V domains shown, Mouse hybridoma antibody purified on ProteinG) VH: EVQLVESGGGLVKPGGSLKLSCAASGFTFSDYGMHWVRQAPEKGLEWVAYINSGSSKIYHADTVKGRFTISRDNAKNTLFLQMTSLRSEDTAMYYCARFPTVVAARYPMDYWGQGTSVTVSS VL: DIQMTQTPSSLSASLGDRVTISCRASQDISNYLNWYQQKPDGTVKLLIYFTSRLHSGVPSRFSGGGSGTDYSLTISNLEQEDIATYFCQQGNTLPYTFGGGTKLEIK |
| – | – | – | 59.7 ng/mL | 0.01 µg/mL | murine anti-hIL-4R alpha monoclonal antibody 120 (antibody, V domains shown, Mouse hybridoma antibody purified on ProteinG) VH: EVQLVESGGGLVKPGGSLKLSCAASGFTFSDYGMHWVRQAPEKGLEWVAYISSGSTTIYYADTVKGRFTISRDNGKNTLFLQMTSLRSEDTAMYYCARISTVVAKRYAMDYWGQGTSVTVSS VL: DIQMTQTASSLSASLGDRVTISCRASQDISNYLNWYQQKPDGTVKLLIYYTSRLHSGVPSRFSGSGSGTDYSLTISNLEQEDIATYFCQQINALPLTFGAGTKLELK |
| – | – | – | 49.6 ng/mL | 0.0113 µg/mL | murine anti-hIL-4R alpha monoclonal antibody 136 (antibody, V domains shown, Mouse hybridoma antibody purified on ProteinG) VH: EVQLVESGGGLVKPGGSLKLSCAASGFTFSDYGMHWVRQAPEKGLEWVAYISSGSTTIYYADTVKGRFTISRDNGKNTLFLQMTSLRSEDTAMYYCARISTVVAKRYAMDYWGQGTSVTVSS VL: DIQMTQTASSLSASLGDRVTISCRASQDISNYLNWYQQKPDGTVKLLIYYTSRLHSGVPSRFSGSGSGTDYSLTISNLEQEDIATYFCQQINALPLTFGAGTKLELK |
| – | – | – | 47.1 ng/mL | 0.0138 µg/mL | murine anti-hIL-4R alpha monoclonal antibody 131 (antibody, V domains shown, Mouse hybridoma antibody purified on ProteinG) VH: EVQLVESGGGLVKPGGSLKLSCAASGFTFSDYGMHWVRQAPEKGLEWVAYISSGSSTIYYADTVKGRFTISRDNAKNTLFLQMTSLRSEDTAMYYCARISTVVAKRYAMDYWGQGTSVTVSS VL: DIQMTQTASSLSASLGDRVTISCRASQDISNYLNWYQQKPDGTVKLLIYYTSRLHSGVPSRFSGSGSGTDYSLTISNLEQEDIATYFCQEVNMLPLTFGAGTKLELK |
